Assay results from the supplement of paper PMC10126150.
± gives the standard deviation of the averaged measurements.

Each sequence was assayed on ATP (assay: switch fluorescence ratio, 500 uM ATP over buffer (Cy3 cluster intensity, sum of 5 cycles each) (fold (ratio)); higher = stronger signal-on switching upon ATP binding; sequences stand for … in TCGTCGGCAGCGTCAGATGTGTATAAGAGACAGTTTTTTTTTTTTTTTTTTTTTTTTT…TC). Details: aptamer strand: ATP DNA aptamer (quencher-CACCTGGGGGAGTATTGCGGAGGAAGG + anchor), 100 nM annealed; ATP concentration: 500 uM.
Summary of the method: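 Clusters with intensities outside 100-1000 RFU were excluded. The remaining Cy3-labelled switching-strand clusters on a modified Illumina MiSeq flow-cell had been annealed to 100 nM quencher-labelled ATP aptamer and imaged in selection buffer, then after 15 min with 500 uM ATP at 22 °C, for five cycles separated by NaOH stripping and re-annealing. The fluorescence ratio, averaged per switch-domain sequence, is each cluster's summed target-cycle Cy3 intensity over its summed buffer-cycle Cy3 intensity.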
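Note: ATP exposure 15 min at 22 °C before imaging.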

| Sequence | switch fluorescence ratio |
| --- | --- |
| GCCATGGCGT | 1.02 ± 0.031 |
| GCCATGTCGA | 0.9921 ± 0.0061 |
| GCCATTGGGG | 0.9872 ± 0.0012 |
| GCCCAACTGT | 1 ± 0.036 |
| GCCCACGCTG | 1.02 ± 0.011 |
| GCCCCATTTT | 1.01 ± 0.024 |
| GCCCCTTAGG | 1.1 ± 0.045 |
| GCCCTATGTG | 1.25 ± 0.034 |
| GCCCTGGGGC | 1.013 ± 0.0075 |
| GCCCTGTATT | 1.015 ± 0.0048 |
| GCCCTTTTAA | 0.982 ± 0.016 |
| GCCGAACCTC | 1.28 ± 0.037 |
| GCCGAAGTCG | 1.02 ± 0.025 |
| GCCGACGGTG | 1 ± 0.019 |
| GCCGCGGGGT | 1 ± 0.0017 |
| GCCGCGTATA | 1.43 ± 0.058 |
| GCCGCGTATC | 1.65 ± 0.12 |
| GCCGCTGATG | 0.982 ± 0.028 |
| GCCGCTGGTG | 1.22 ± 0.077 |
| GCCGGAGGGA | 0.989 ± 0.038 |
| GCCGGCACTG | 1.002 ± 0.0064 |
| GCCGGCTTTG | 1.03 ± 0.026 |
| GCCGGGATGT | 1.02 ± 0.052 |
| GCCGGGCAGC | 0.98 ± 0.035 |
| GCCGGGGAGG | 0.984 ± 0.038 |

| Sequence | switch fluorescence ratio |
| --- | --- |
| GCCGGGGCAG | 1.01 ± 0.033 |
| GCCGGGGGGG | 1.02 ± 0.02 |
| GCCGGGGGTG | 1.04 ± 0.023 |
| GCCGGGTTAT | 1.03 ± 0.079 |
| GCCGTAACGG | 0.982 ± 0.014 |
| GCCGTAATGG | 1.24 ± 0.089 |
| GCCGTAATTA | 1.09 ± 0.017 |
| GCCGTCTGTG | 0.9728 ± 0.0039 |
| GCCGTGTGAT | 0.986 ± 0.0083 |
| GCCGTTGGGG | 0.99 ± 0.031 |
| GCCGTTTGTG | 1.008 ± 0.0024 |
| GCCGTTTTTT | 0.97 ± 0.04 |
| GCCTAAATGC | 1.44 ± 0.28 |
| GCCTAATGGT | 0.993 ± 0.016 |
| GCCTATGAGG | 0.993 ± 0.038 |
| GCCTATTGTT | 0.983 ± 0.02 |
| GCCTCAGGGT | 1.08 ± 0.02 |
| GCCTCCAGTT | 1.15 ± 0.025 |
| GCCTCTGGTG | 1.33 ± 0.035 |
| GCCTGAACTT | 1.03 ± 0.006 |
| GCCTGATACA | 1.02 ± 0.031 |
| GCCTGCCCCG | 1.69 ± 0.026 |
| GCCTGGACGA | 1.04 ± 0.018 |
| GCCTGGGAAG | 0.976 ± 0.036 |
| GCCTGGGGAA | 0.9844 ± 0.0087 |

| Sequence | switch fluorescence ratio |
| --- | --- |
| GCCTGGGTTC | 0.985 ± 0.02 |
| GCCTGGTTGT | 1.02 ± 0.013 |
| GCCTTGGGAA | 1.02 ± 0.028 |
| GCCTTGTGCA | 0.995 ± 0.017 |
| GCCTTTCTGA | 0.9855 ± 0.0061 |
| GCCTTTGTAA | 1.09 ± 0.056 |
| GCCTTTTGTT | 0.995 ± 0.027 |
| GCGAAAAAGA | 0.98 ± 0.031 |
| GCGAAAAATA | 1.0196 ± 0.00067 |
| GCGAAAGGGA | 1.02 ± 0.036 |
| GCGAACGGGG | 1.01 ± 0.049 |
| GCGAAGGTCA | 1.01 ± 0.012 |
| GCGACACACT | 1.47 ± 0.058 |
| GCGACATAGG | 0.964 ± 0.042 |
| GCGACATGAT | 1.025 ± 0.0011 |
| GCGACTTGGG | 1.04 ± 0.054 |
| GCGAGAGCTA | 0.9602 ± 0.0021 |
| GCGAGGGGCA | 0.992 ± 0.025 |
| GCGAGGGTCT | 1.01 ± 0.027 |
| GCGAGTACCG | 1.02 ± 0.032 |
| GCGAGTTCTA | 0.963 ± 0.025 |
| GCGATAAAGC | 1.03 ± 0.041 |
| GCGATGAATC | 1.04 ± 0.04 |
| GCGATGCCTC | 1.09 ± 0.043 |
| GCGATGTATA | 1.02 ± 0.013 |

| Sequence | switch fluorescence ratio |
| --- | --- |
| GCGATGTTTG | 0.998 ± 0.023 |
| GCGATTAAGG | 0.9904 ± 0.0013 |
| GCGATTAGAG | 1 ± 0.02 |
| GCGATTATCT | 1.002 ± 0.0064 |
| GCGATTCGGG | 0.978 ± 0.01 |
| GCGATTGAGC | 0.9808 ± 0.004 |
| GCGATTTTTT | 0.974 ± 0.021 |
| GCGCAGTACG | 4.91 ± 0.71 |
| GCGCATTGTT | 1.026 ± 0.0094 |
| GCGCCAGGCG | 0.998 ± 0.025 |
| GCGCCCAACT | 1.03 ± 0.035 |
| GCGCCCGTGG | 1.01 ± 0.034 |
| GCGCCCTGTG | 1.122 ± 0.0062 |
| GCGCGAAGGA | 1.03 ± 0.053 |
| GCGCGCGTTC | 1.03 ± 0.045 |
| GCGCGGAGGA | 1.03 ± 0.029 |
| GCGCGGGGGA | 1.02 ± 0.025 |
| GCGCGGTGGC | 1.09 ± 0.015 |
| GCGCGTTAGC | 1.007 ± 0.0014 |
| GCGCTGGGGG | 1.07 ± 0.081 |
| GCGCTTGCTC | 1.13 ± 0.013 |
| GCGCTTTTGC | 1.04 ± 0.061 |
| GCGGAATATG | 1.13 ± 0.018 |
| GCGGAATGCT | 1.2 ± 0.32 |
| GCGGACCGGG | 1.04 ± 0.031 |
